Reference: the Human Domainome abundance scans (Beltran et al. 2025)
± gives the uncertainty stated by the source.

B1: Arginine-glutamic acid dipeptide repeats protein, residues 502 to 543; numbered along this chain, Q9P2R6 (parent)
chain: LKGYACRHCFTTTSKDWHHGGRENILLCTDCRIHFKKYGELP

Variants of: B1
Experiment: abundance fitness (aPCA) (normalised: wild type 0, dead -1); higher = more abundant; growth selection in yeast, the domain comes from the species named
Conditions: Homo sapiens

Variant | abundance fitness
LKGYACMHCFTTTSKDWHHGGRENILLCTDCRIHFKKYGELP [R7M] | -0.02 ± 0.042
LKGYACNHCFTTTSKDWHHGGRENILLCTDCRIHFKKYGELP [R7N] | -0.115 ± 0.059
LKGYACPHCFTTTSKDWHHGGRENILLCTDCRIHFKKYGELP [R7P] | -0.293 ± 0.043
LKGYACQHCFTTTSKDWHHGGRENILLCTDCRIHFKKYGELP [R7Q] | 0.036 ± 0.053
LKGYACSHCFTTTSKDWHHGGRENILLCTDCRIHFKKYGELP [R7S] | 0.021 ± 0.037
LKGYACVHCFTTTSKDWHHGGRENILLCTDCRIHFKKYGELP [R7V] | -0.098 ± 0.034
LKGYACWHCFTTTSKDWHHGGRENILLCTDCRIHFKKYGELP [R7W] | -0.195 ± 0.039
LKGYACYHCFTTTSKDWHHGGRENILLCTDCRIHFKKYGELP [R7Y] | -0.056 ± 0.045
LKGYACRACFTTTSKDWHHGGRENILLCTDCRIHFKKYGELP [H8A] | -0.189 ± 0.038
LKGYACRCCFTTTSKDWHHGGRENILLCTDCRIHFKKYGELP [H8C] | -0.259 ± 0.052
LKGYACRECFTTTSKDWHHGGRENILLCTDCRIHFKKYGELP [H8E] | -0.348 ± 0.045
LKGYACRFCFTTTSKDWHHGGRENILLCTDCRIHFKKYGELP [H8F] | -0.387 ± 0.065
LKGYACRGCFTTTSKDWHHGGRENILLCTDCRIHFKKYGELP [H8G] | -0.222 ± 0.034
LKGYACRICFTTTSKDWHHGGRENILLCTDCRIHFKKYGELP [H8I] | -0.292 ± 0.064
LKGYACRKCFTTTSKDWHHGGRENILLCTDCRIHFKKYGELP [H8K] | -0.368 ± 0.058
LKGYACRLCFTTTSKDWHHGGRENILLCTDCRIHFKKYGELP [H8L] | -0.489 ± 0.041
LKGYACRMCFTTTSKDWHHGGRENILLCTDCRIHFKKYGELP [H8M] | -0.347 ± 0.045
LKGYACRNCFTTTSKDWHHGGRENILLCTDCRIHFKKYGELP [H8N] | 0.064 ± 0.058
LKGYACRPCFTTTSKDWHHGGRENILLCTDCRIHFKKYGELP [H8P] | -0.836 ± 0.11
LKGYACRQCFTTTSKDWHHGGRENILLCTDCRIHFKKYGELP [H8Q] | -0.307 ± 0.046

Variant | abundance fitness
LKGYACRRCFTTTSKDWHHGGRENILLCTDCRIHFKKYGELP [H8R] | -0.229 ± 0.031
LKGYACRSCFTTTSKDWHHGGRENILLCTDCRIHFKKYGELP [H8S] | -0.136 ± 0.046
LKGYACRTCFTTTSKDWHHGGRENILLCTDCRIHFKKYGELP [H8T] | -0.428 ± 0.053
LKGYACRWCFTTTSKDWHHGGRENILLCTDCRIHFKKYGELP [H8W] | -0.044 ± 0.044
LKGYACRYCFTTTSKDWHHGGRENILLCTDCRIHFKKYGELP [H8Y] | -0.238 ± 0.36
LKGYACRHAFTTTSKDWHHGGRENILLCTDCRIHFKKYGELP [C9A] | -0.425 ± 0.043
LKGYACRHDFTTTSKDWHHGGRENILLCTDCRIHFKKYGELP [C9D] | -0.547 ± 0.061
LKGYACRHEFTTTSKDWHHGGRENILLCTDCRIHFKKYGELP [C9E] | -0.318 ± 0.041
LKGYACRHGFTTTSKDWHHGGRENILLCTDCRIHFKKYGELP [C9G] | -0.455 ± 0.038
LKGYACRHKFTTTSKDWHHGGRENILLCTDCRIHFKKYGELP [C9K] | -0.371 ± 0.094
LKGYACRHLFTTTSKDWHHGGRENILLCTDCRIHFKKYGELP [C9L] | -0.517 ± 0.042
LKGYACRHMFTTTSKDWHHGGRENILLCTDCRIHFKKYGELP [C9M] | -0.542 ± 0.063
LKGYACRHNFTTTSKDWHHGGRENILLCTDCRIHFKKYGELP [C9N] | -0.271 ± 0.12
LKGYACRHPFTTTSKDWHHGGRENILLCTDCRIHFKKYGELP [C9P] | -0.494 ± 0.051
LKGYACRHRFTTTSKDWHHGGRENILLCTDCRIHFKKYGELP [C9R] | -0.493 ± 0.037
LKGYACRHSFTTTSKDWHHGGRENILLCTDCRIHFKKYGELP [C9S] | -0.392 ± 0.073
LKGYACRHTFTTTSKDWHHGGRENILLCTDCRIHFKKYGELP [C9T] | -0.44 ± 0.043
LKGYACRHVFTTTSKDWHHGGRENILLCTDCRIHFKKYGELP [C9V] | -0.451 ± 0.048
LKGYACRHWFTTTSKDWHHGGRENILLCTDCRIHFKKYGELP [C9W] | -0.645 ± 0.061
LKGYACRHYFTTTSKDWHHGGRENILLCTDCRIHFKKYGELP [C9Y] | -0.426 ± 0.087

Variant | abundance fitness
LKGYACRHCATTTSKDWHHGGRENILLCTDCRIHFKKYGELP [F10A] | 0.054 ± 0.032
LKGYACRHCCTTTSKDWHHGGRENILLCTDCRIHFKKYGELP [F10C] | -0.036 ± 0.051
LKGYACRHCDTTTSKDWHHGGRENILLCTDCRIHFKKYGELP [F10D] | -0.08 ± 0.039
LKGYACRHCHTTTSKDWHHGGRENILLCTDCRIHFKKYGELP [F10H] | 0.134 ± 0.094
LKGYACRHCITTTSKDWHHGGRENILLCTDCRIHFKKYGELP [F10I] | -0.352 ± 0.085
LKGYACRHCKTTTSKDWHHGGRENILLCTDCRIHFKKYGELP [F10K] | 0.017 ± 0.041
LKGYACRHCLTTTSKDWHHGGRENILLCTDCRIHFKKYGELP [F10L] | -0.068 ± 0.035
LKGYACRHCMTTTSKDWHHGGRENILLCTDCRIHFKKYGELP [F10M] | -0.083 ± 0.048
LKGYACRHCNTTTSKDWHHGGRENILLCTDCRIHFKKYGELP [F10N] | -0.238 ± 0.058
LKGYACRHCPTTTSKDWHHGGRENILLCTDCRIHFKKYGELP [F10P] | -0.279 ± 0.071
LKGYACRHCQTTTSKDWHHGGRENILLCTDCRIHFKKYGELP [F10Q] | 0.03 ± 0.044
LKGYACRHCRTTTSKDWHHGGRENILLCTDCRIHFKKYGELP [F10R] | -0.014 ± 0.032
LKGYACRHCSTTTSKDWHHGGRENILLCTDCRIHFKKYGELP [F10S] | 0.015 ± 0.048
LKGYACRHCTTTTSKDWHHGGRENILLCTDCRIHFKKYGELP [F10T] | -0.099 ± 0.045
LKGYACRHCVTTTSKDWHHGGRENILLCTDCRIHFKKYGELP [F10V] | -0.331 ± 0.035
LKGYACRHCWTTTSKDWHHGGRENILLCTDCRIHFKKYGELP [F10W] | -0.054 ± 0.036
LKGYACRHCYTTTSKDWHHGGRENILLCTDCRIHFKKYGELP [F10Y] | -0.101 ± 0.063
LKGYACRHCFATTSKDWHHGGRENILLCTDCRIHFKKYGELP [T11A] | -0.136 ± 0.035
LKGYACRHCFCTTSKDWHHGGRENILLCTDCRIHFKKYGELP [T11C] | -0.219 ± 0.046
LKGYACRHCFDTTSKDWHHGGRENILLCTDCRIHFKKYGELP [T11D] | -0.277 ± 0.068
